In PMC8282004 one finds binding efficiency (percentage of GFP+ cells that bound RBD-Fc) data, which are given here for 1 substance.

This assay deals with hACE2-K31N/K353H (human) (UniProt Q9BYF1). The assay can be described thus: flow cytometry on cells.

Consider “recombinant SARS-CoV-2 spike RBD-Fc protein (from UniProt P0DTC2 319-524) (Fc fusion)”, for which the binding efficiency (percentage of GFP+ cells that bound RBD-Fc) was 7.86%.
